Common to all, as to assay: co-IP
Assay [1] addresses CD7BB1 (human | canine) (UniProt P09564).
Assay [2] shares this target. The source holds these as a separate data set.
The next assay addresses GP2CAD1 (rat | canine).

Consider two molecules from publication PMC2132940.

UniProt P09564, sequence (P09564 whole entry): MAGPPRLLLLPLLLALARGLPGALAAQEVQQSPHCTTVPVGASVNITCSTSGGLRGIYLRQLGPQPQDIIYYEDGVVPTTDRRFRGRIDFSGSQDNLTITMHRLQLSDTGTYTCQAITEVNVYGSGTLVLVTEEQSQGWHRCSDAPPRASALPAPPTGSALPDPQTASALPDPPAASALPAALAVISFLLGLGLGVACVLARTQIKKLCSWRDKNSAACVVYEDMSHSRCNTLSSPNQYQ

Consider α-catenin (natural protein), for which the stoichiometry N (α-catenin per 5 CD7BB1) in the assay with CD7BB1 (human | canine) [1] stood at 0.8.

B1: β-catenin (natural protein)
chain: MATQADLMELDMAMEPDRKAAVSHWQQQSYLDSGIHSGATTTAPSLSGKGNPEEEDVDTTQVLYEWEQGFSQSFTQEQVADIDGQYAMTRAQRVRAAMFPETLDEGMQIPSTQFDAAHPTNVQRLAEPSQMLKHAVVNLINYQDDAELATRAIPELTKLLNDEDQVVVNKAAVMVHQLSKKEASRHAIMRSPQMVSAIVRTMQNTNDVETARCTAGTLHNLSHHREGLLAIFKSGGIPALVKMLGSPVDSVLFYAITTLHNLLLHQEGAKMAVRLAGGLQKMVALLNKTNVKFLAITTDCLQILAYGNQESKLIILASGGPQALVNIMRTYTYEKLLWTTSRVLKVLSVCSSNKPAIVEAGGMQALGLHLTDPSQRLVQNCLWTLRNLSDAATKQEGMEGLLGTLVQLLGSDDINVVTCAAGILSNLTCNNYKNKMMVCQVGGIEALVRTVLRAGDREDITEPAICALRHLTSRHQEAEMAQNAVRLHYGLPVVVKLLHPPSHWPLIKATVGLIRNLALCPANHAPLREQGAIPRLVQLLVRAHQDTQRRTSMGGTQQQFVEGVRMEEIVEGCTGALHILARDVHNRIVIRGLNTIPLFVQLLYSPIENIQRVAAGVLCELAQDKEAAEAIEAEGATAPLTELLHSRNEGVATYAAAVLFRMSEDKPQDYKKRLSVELTSSLFRTEPMAWNETADLGLDIGAQGEPLGYRQDDPSYRSFHSGGYGQDALGMDPMMEHEMGGHHPGADYPVDGLPDLGHAQDLMDGLPPGDSNQLAWFDTDL
In the case of B1, the stoichiometry N (β-catenin per 5 CD7BB1) in the assay with CD7BB1 (human | canine) [2] was 1. In addition, the stoichiometry N (β-catenin per GP2CAD1) in the assay with GP2CAD1 (rat | canine) turned out to be 1.
